From US20220056125A1 (CEPHALON, published 2022)

T1: human PAR-2 (human, UniProt P55085 26-397)
T1 sequence: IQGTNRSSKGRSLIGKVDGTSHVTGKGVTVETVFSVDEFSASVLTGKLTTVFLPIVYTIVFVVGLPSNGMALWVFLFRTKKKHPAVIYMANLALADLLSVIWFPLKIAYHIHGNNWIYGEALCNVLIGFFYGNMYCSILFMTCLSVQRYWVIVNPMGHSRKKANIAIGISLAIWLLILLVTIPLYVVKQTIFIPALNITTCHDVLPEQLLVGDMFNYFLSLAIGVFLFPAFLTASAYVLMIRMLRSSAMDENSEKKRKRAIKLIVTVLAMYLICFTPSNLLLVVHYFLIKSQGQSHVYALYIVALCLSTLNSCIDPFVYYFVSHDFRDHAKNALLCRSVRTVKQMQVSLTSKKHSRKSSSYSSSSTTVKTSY

T2: human PAR-1 (human, UniProt P25116 22-425)
T2 construct: also called huPAR-1
T2 sequence: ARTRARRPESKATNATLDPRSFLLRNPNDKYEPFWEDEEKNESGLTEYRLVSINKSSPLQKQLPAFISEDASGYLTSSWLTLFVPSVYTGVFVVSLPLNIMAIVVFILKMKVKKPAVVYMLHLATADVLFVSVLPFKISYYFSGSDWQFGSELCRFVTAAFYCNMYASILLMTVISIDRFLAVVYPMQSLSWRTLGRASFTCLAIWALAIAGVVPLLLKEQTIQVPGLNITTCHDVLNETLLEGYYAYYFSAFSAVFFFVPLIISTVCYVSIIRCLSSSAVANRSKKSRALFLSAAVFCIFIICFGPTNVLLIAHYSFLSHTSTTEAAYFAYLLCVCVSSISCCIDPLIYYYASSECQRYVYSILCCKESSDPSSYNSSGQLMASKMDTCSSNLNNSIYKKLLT

T3: rat PAR-2 on cells (rat, UniProt Q63645 26-397)
T3 construct: transiently transfected CHEM-1 cells
T3 sequence: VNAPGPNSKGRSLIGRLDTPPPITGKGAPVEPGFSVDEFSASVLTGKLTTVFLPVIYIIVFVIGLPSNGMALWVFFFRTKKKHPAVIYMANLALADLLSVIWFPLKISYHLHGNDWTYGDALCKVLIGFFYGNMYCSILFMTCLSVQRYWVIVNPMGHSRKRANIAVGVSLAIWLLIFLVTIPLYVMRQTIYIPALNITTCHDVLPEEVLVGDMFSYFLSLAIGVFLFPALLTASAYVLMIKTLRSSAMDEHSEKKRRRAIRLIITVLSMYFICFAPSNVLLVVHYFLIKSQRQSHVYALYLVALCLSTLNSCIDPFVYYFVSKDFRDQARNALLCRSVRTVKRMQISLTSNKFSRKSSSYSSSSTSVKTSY

T4: recombinant human PAR-2 (human, UniProt P55085 37-397, limits assumed)
T4 construct: detergent-solubilised preparation used in SPR; also called recombinant PAR-2
T4 sequence: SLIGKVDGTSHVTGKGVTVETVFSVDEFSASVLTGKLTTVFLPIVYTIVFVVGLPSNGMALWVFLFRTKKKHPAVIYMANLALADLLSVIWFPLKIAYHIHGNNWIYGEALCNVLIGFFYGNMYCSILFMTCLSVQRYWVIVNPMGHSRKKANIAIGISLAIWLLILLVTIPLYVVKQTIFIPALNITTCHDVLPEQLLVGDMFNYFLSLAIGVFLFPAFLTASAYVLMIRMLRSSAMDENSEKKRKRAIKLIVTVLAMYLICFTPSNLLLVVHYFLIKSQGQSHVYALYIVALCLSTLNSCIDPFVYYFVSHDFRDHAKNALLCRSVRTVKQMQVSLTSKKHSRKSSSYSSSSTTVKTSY


Assays:
human PAR-2 [1] = molecular target: T1, human PAR-2; experiment: cell-based or functional assay
human PAR-2 [2] = molecular target: T1, human PAR-2; experiment: cell-based or functional assay; remark: listed apart in the source
human PAR-1 = molecular target: T2, human PAR-1; experiment: flow cytometry, transfected Expi293F cells
human PAR-2 [3] = molecular target: T1, human PAR-2; experiment: cell-based or functional assay; remark: listed apart in the source
human PAR-2 [4] = molecular target: T1, human PAR-2; experiment: cell-based or functional assay; remark: listed apart in the source
human PAR-2 [5] = molecular target: T1, human PAR-2; experiment: cell-based or functional assay; remark: listed apart in the source
human PAR-2 [6] = molecular target: T1, human PAR-2; experiment: cell-based or functional assay; remark: listed apart in the source
rat PAR-2 on cells = molecular target: T3, rat PAR-2 on cells; experiment: flow cytometry, transiently transfected CHEM-1 cells
Procedure: The cells were plated in 96 well plates at 2×10⁵ cells/well. Following a wash step using Phosphate buffered saline (PBS), the primary antibody (anti-PAR-2 antibody) was added at a concentration of 10 μg/mL in 50 μL of FACS buffer (0.5% w/v BSA in PBS) to each well and incubated for 10-15 mins. Following a wash step, secondary antibody (anti-human Fc-FITC) was added to the wells at 1:200 dilution in 50 μL for 10-15 mins. Following a washing step, the cells were re-suspended in fluorescence-activated cell sorting (FACS) buffer. The flow cytometry analysis was performed on an Intellicyt iQue screener. Gates were drawn around the different intensities of encoder dye-positive cells and these populations were analyzed separately from each other and the unlabeled cells for binding by the primary antibody.
P24E1102 binding was also assessed by flow cytometry, as described in Example 1 supra, using PAR-2 transiently transfected into CHEM-1 cells. In addition to human, cynomolgus, mouse and rat, guinea pig, rabbit and dog PAR-2 were also tested. P24E1102 bound well to human and cynomolgus PAR-2 but minimally to all other species tested.

recombinant human PAR-2 = molecular target: T4, recombinant human PAR-2; experiment: SPR, antibody captured on Protein A chip, recombinant PAR-2 injected
Procedure: (§1) Selected antibodies were tested for binding to various species of PAR-2 using surface plasmon resonance (SPR) assay for antibody binding to recombinant PAR-2, except that human PAR-2 was substituted with PAR-2 from cynomolgus monkeys, rat, or mice.
(§2) Antibodies were transfected and harvested as described in Example 3, supra. Antibodies in supernatant were diluted 1 in 50-250 in running buffer (50 mM HEPES, 250 mM NaCl, 0.1% w/v LMNG, 0.025% w/v CHAPS, 0.005% CHS, pH 7.4) and purified antibodies were diluted to 0.5 ug/mL in running buffer A Series S Protein A chip was docked into the instrument (Biacore S20) and the system was primed four times with running buffer prior to the run. Recombinant human PAR-2 was diluted to 0-5 μg/mL in running buffer. The surface was regenerated using 50 mM NaOH. The antibody was captured to between 20 to 110 Relative Units on the chip surface. The sample (recombinant PAR-2) was injected for 1 min at 30 μl/min, followed by dissociation phase of 180s. Sensorgrams were double referenced by buffer subtraction and by reference cell subtraction. Binding curves were then fit to a 1:1 binding model with kinetic constants derived from curve fits. Antibodies were ranked by dissociation rate (kd) when only one concentration of antigen was injected. Antibodies were ranked by their equilibrium dissociation constant (KD) when multiple concentrations of PAR-2 were injected. […]

[7] = molecular target: T5, recombinant cynomolgus monkey PAR-2 (cynomolgus monkey); experiment: as above
T5 construct: also called cynomolgus PAR-2
Procedure: as §1, §2

human PAR-2 [8] = molecular target: T1, human PAR-2; experiment: cell-based or functional assay; remark: listed apart in the source

T5 sequence (Q863Y8 other isoform, or with tags, fused parts or gaps): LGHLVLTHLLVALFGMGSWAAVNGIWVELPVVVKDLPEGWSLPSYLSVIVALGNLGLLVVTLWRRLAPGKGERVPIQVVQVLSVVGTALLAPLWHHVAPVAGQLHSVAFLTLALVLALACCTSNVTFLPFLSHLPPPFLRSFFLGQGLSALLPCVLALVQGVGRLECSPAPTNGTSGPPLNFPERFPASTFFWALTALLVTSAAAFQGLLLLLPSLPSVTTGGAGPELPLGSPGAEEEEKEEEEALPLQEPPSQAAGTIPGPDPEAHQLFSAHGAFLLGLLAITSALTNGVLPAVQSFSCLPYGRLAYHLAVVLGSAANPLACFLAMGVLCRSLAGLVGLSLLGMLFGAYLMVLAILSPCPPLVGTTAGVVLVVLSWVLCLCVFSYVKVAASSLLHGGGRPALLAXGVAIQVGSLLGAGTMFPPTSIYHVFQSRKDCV

Row | IC50, PAR-2 β-arrestin cell assay (human PAR-2 [1]) | IC50, PAR-2 calcium flux assay (trypsin EC80) (human PAR-2 [2]) | binding result (human PAR-1) | Binder | other results
1 | 10.7 nM | 73.2 nM | no binding (tested: 10 µg/mL) | Ab20 (antibody, human IgG4, V domains shown, also called Anti-PAR-2 antibody # 20) VH: EVQLVESGGGLVQPKGSLKLSCAASGFTFNIYAMHWVRQAPGKGLEWVARIGSKSSNYATNYADSVKDRFTISRDDSQSMLCLQMNNLKTEDTAMYYCVREDYYGNSFDSWGQGTTLAVSS VL: QIVLSQSPAILSASPGEKVTMTCRTSSSVIYIHWYQQKSGSSPKPWIYATSNLASGVPTRFSGSGSGTSYSLTISRVEAEDAATYYCHHWRSNPPTFGGGTKLEIK | –
2 | 16.5 nM | 169 nM | no binding (tested: 10 µg/mL) | Ab77 (antibody, human IgG4, V domains shown, also called Anti-PAR-2 antibody # 77) VH: EVQLVGSGGGLVQPKGSLKLSCAASGFTFNTYAMHWVRQAPGKGLEWVARIGSKSSYYATYYADSVKDRFTISRDDSQSMLYLQMNNLKTEDTAMYYCVREDYYGSSYDYWGQGTTLTVSS VL: DIVMTQSHKFMSISVGDRVSITCKASQDVGTAVAWHQQKAGQSPKLLIYWASARHTGVPDRFTGSGSGTDFTLTISNVQSEDLTDFFCQQYSNYPFTFGSGTKLEIK | –
3 | 4.9 nM | 29 nM | no binding (tested: 10 µg/mL) | Ab39 (antibody, human IgG4, V domains shown, also called Anti-PAR-2 antibody # 39) VH: EVQLVESGGGLVQPKGSLKLSCAASGFTFNTYAMHWVRQAPGKGLEWVARIGSKSSYYATYYADSVKDRFTISRADSQSMLYLQMNNLKTEDTAIYYCVREDYYGCSFDYWGQGTTLTVSS VL: QIVLSQSPVILSTSPGEKVTMTCRANSRVIYVHWYQQKPGSSPKPWIFATSNLASGVPSRFSGSGSGTSYSLTISRVETEDAATYYCQHCGNNPPTFGSGTKLEIK | –
4 | – | – | – | P24E1102 (antibody, human IgG4 S228P, kappa, V domains shown, human IgG4 S228P K447del / kappa; also called Anti-PAR-2 (P24E1102); TEV-56192 P24E1102) VH: QVQLVQSGAEVKKPGSSVKVSCKASGFSLSSYAISWVRQAPGQGLEWMGVIWGNQNVYYAQKFQGRVTITADESTSTAYMELSSLRSEDTAVYYCARWKGYKDYPFDYWGQGTLVTVSS VL: EIVLTQSPATLSLSPGERATLSCRASQNVYKWLDWYQQKPGQAPRLLIYNANTRATGIPARFSGSGSGRDFTLTISSLEPEDFAVYYCQQHHSGWTFGGGTKVEIKR | IC50, PAR-2 activating ligand-induced calcium flux in A549 cells (human PAR-2 [3]): 13.2 nM; PAR-2 β-arrestin cell based assay IC50, 2 µM SLIGKV (human PAR-2 [4]): 1.4 nM; Calcium flux IC50 (human PAR-2 [5]): 17.4 nM; IL-6 release in A549 cells IC50 (human PAR-2 [5]): 5 nM; IL-8 release in A549 cells IC50 (human PAR-2 [5]): 4.62 nM; IC50 mean, calcium flux at SLIGKV EC80, Nomad line (human PAR-2 [6]): 2.07 nM; IC50 mean, β-arrestin at SLIGKV EC80, Nomad line (human PAR-2 [6]): 5.38 nM; binding result (rat PAR-2 on cells): binds; Kd (recombinant human PAR-2): 0.433 to 0.946 nM; Kd [7]: 4.45 nM
5 | 1.6 nM | 6.7 nM | no binding (tested: 10 µg/mL) | Ab309 (antibody, human IgG4, V domains shown) VH: QVQLKESGPGLVQPSQTLSLTCTVSGFSLNSYGVIWARQPPGKGLDWMGVIWGNGNTYYNSDLKSRLSISRDTSKSQVFLKMNNLQAEDTALYFCARWRGYKDYPFDYWGQGVMVTVSS VL: DIQMTQSPSFLSASVGDRVTFNCKASQNIYKYLDWYQQKLGEAPKLLIYNTNSLHTGIPSRFSGSGFGTDFTLTISSLQPEDVATYFCLQHNSGWTFGGGTKLELR | PAR-2 calcium flux cell assay IC50 (human PAR-2 [8]): 8.6 nM; PAR-2 β-arrestin cell assay IC50, 1 µM SLIGKV (human PAR-2 [8]): 4.4 nM
